Source: patent US11298402B2, “Lysosomal degradation of lipids and proteins and method of use thereof” (University of Ottawa, priority 2015, dated 2022)
“Also recorded” adds a separate entry of the source.

Experiments:
[1] = tested on: hepatic cells; experiment: Prolonged oleate treatment (OA-induced steatosis) of hepatic cells; type: cell-based; settings: for steatosis (CLD accumulation): oleate 0.4 mM for up to 3 days
Description: FIG. 36 illustrates that the LD content in cells cultured under lipid-rich conditions may be manipulated by expression of different forms of Arl8b. Images in the top row show position of lysosomes in cells cultured in a lipid-rich medium (i.e. supplemented with oleate) for up to 4 days. After 1-day treatment with oleate, lysosomes (stained with LysoTracker, green) were accumulated in the perinuclear regions of cells. However after 2-day oleate treatment, lysosomes were relocated towards the LDs at cell periphery. The relocation of lysosomes from the perinuclear region toward cell periphery indicates perturbed lysosomal motility under oleate-treatment conditions, which leads to prolonged association of lysosomes with LDs. Accumulation/higher interaction of lysosomes on LDs became more pronounced after 3- and 4-day treatment with oleate, with clear rings of lysosomes around LDs. Expression of the GDP-bound form of Arl8b, or Arl8b^T34N (or Arl8b “DN”, dominant negative), protects hepatocytes from accumulation of LDs upon long-term treatment with oleate. Note that even after 3 days, cells expressing Arl8b “DN” were healthy and accumulated low numbers of LDs (middle row). In contrast, expression of the GTP-bound form of Arl8b, or Arl8b^Q75L (or Arl8b “DA”, dominant active), exacerbated accumulation of LDs in cells (images in the bottom row). In fact, the cells could not tolerate long-term treatment and started to die after day 2. This situation may be similar to that in advanced levels of fatty liver, which causes hepatocyte apoptosis;
In these cells, lysosomes were continuously in contact with CLD, indicative of stalled lysosomal motility. This persistent lysosomal interaction with CLDs (i.e. “kiss” without “run”) clearly indicates the interfered process of microautophagy and lack of a mechanism in the cells, after prolonged OA treatment, that facilitates dissociation of lysosomes from CLDs, blocking the engulfment process. Thus, phenotypically, accumulation of CLD in cells cultured in lipid-rich media (e.g. supplementation with 0.4 mM OA) is invariably associated with a compromised lysosomal motility (i.e. kiss-and-run).

[2] = tested on: hepatic cells; experiment: Hepatic glucose uptake (fluorescent 2-NBDG assay); type: cell-based; settings: transfected cells treated with EPA
[3] = tested on: McA-RH7777 cells stably expressing human apoB-100 and human apoC-III (A18-C3); type: cell-based; settings: for effect on EPA-induced lipid degradation (CLD turnover): cells silenced, transfected or pre-treated, then EPA 0.4 mM, 6 h
Protocol: In certain non-limiting examples described herein, McA-RH7777 cells stably expressing human apoB-100 and human apoC-III (designated A18-C3) were used for the studies. […] In addition, these studies, particularly those concerning EPA- or DHA-triggered lysosomal motility and CLD degradation, were also performed using primary rat hepatocytes. Transfection of plasmids encoding proteins of interest, or transfection of siRNA specific for silencing target gene expression, was achieved using the FuGENE HP Extreme reagent (Roche). Representative gene silencing siRNA sequences, which are not meant to be limiting, are described in Table 1, and plasmids encoding proteins of interest are described in Table 2. The effectiveness of siRNA silencing was verified by Western-blotting of cellular content of the target proteins, and by intracellular localization assay using siRNA-Tracker (Mirus Bioscience). Twenty-four h after plasmid transfection, or 48 h after siRNA transfection, the cells were cultured in lipid-rich media containing fetal bovine serum (20%) and OA (0.4 mM). The lipid-laden cells were switched to fresh media supplemented with OA or EPA (0.4 mM). In live imaging experiments, LipidTOX Red (Life Technologies) and LysoTracker (Life Technologies) were added to media prior to EPA treatment, to visualize lipid droplets and lysosomes, respectively. For visualizing peroxisomes, Peroxisome-GFP (Invitrogen) was introduced to the cells 24 h prior to experiments. Quantification of cell lipid contents was achieved either by direct mass measurement (HPTLC) and counting the number of lipid droplets using Image J Lipid Droplet Counter Plug-In, or indirectly by Western blot analysis of cellular content of ADRP. Secretion of apoB and TG-rich lipoprotein was determined by Western blot analysis and metabolic labeling. Mitochondrial β-oxidation was measured using MitoSOX Red (Life Technologies) in situ. Autophagic flux was determined by using Cyto-ID assay (Enzo Life Science) and by monitoring GFP-LC3 clustering in situ. Interaction of Arl8b and subunits of the HOPS complex was determined in situ by the proximity ligation assay (Olink Biosience). Cytoplasmic pH was measured using the cytosolic pHrodo indicator reagent (Invitrogen). Live imaging of fluorescent-tagged proteins was performed 1 h post-EPA treatment. Cells were also collected at the time of EPA treatment for transmission EM and tomography, as well as immuno-EM. For movies, cells were imaged at 60 sec intervals every 5 min, for a total of 30 min.
The A18-C3 cells were cultured in DMEM (Invitrogen) supplemented with fetal bovine serum (20%), penicillin (50 U/mL), streptomycin (50 μg/mL, Invitrogen) and Geneticin/G418 (500 μg/mL, Gibco) at 37° C. in 5% CO2. Transfection was conducted when cells were 60-70% confluence. Appropriate plasmids were mixed with FuGENE HP extreme reagent (Roche Diagnostic), according to manufacturer's protocol, and incubated for 30 min. Twenty-four h after transfection, cells were switched to lipid-rich media containing OA (0.4 mM) for additional 16 h prior to imaging and biochemical analysis. In silencing experiments, appropriate siRNAs were transfected into cells using the X-treme GENE siRNA regent (Roche Diagnostic). Localization of siRNA in transfected cells in situ was carried out using the Cy5 Label IT-siRNA Tracker (Minis Bioscience #7213) according to manufacturer's protocol. Forty-eight h after transfection, cells were switched to lipid-rich media containing OA (0.4 mM) for additional 16 h prior to imaging and biochemical analysis.
Quantification of lipid droplets was carried out using confocal and differential interface contrast (DIC) microscopy. Lipid droplets were stained with LipidTOX Red (Invitrogen) before adding OA or EPA. All images were visualized using a 63× oil immersion objective lens. Z-series stacks were acquired with 0.2 μm steps. […]

[4] = tested on: primary neurons from parkinsonian mice; experiment: Lysosome and cell morphology in Parkinson's disease primary neurons; type: cell-based, mouse
[5] = tested on: McA-RH7777 cells (A18-C3); experiment: Autophagic flux (Cyto-ID assay); type: cell-based, rat
Protocol: In certain non-limiting examples described herein, McA-RH7777 cells stably expressing human apoB-100 and human apoC-III (designated A18-C3) were used for the studies. […] In addition, these studies, particularly those concerning EPA- or DHA-triggered lysosomal motility and CLD degradation, were also performed using primary rat hepatocytes. Transfection of plasmids encoding proteins of interest, or transfection of siRNA specific for silencing target gene expression, was achieved using the FuGENE HP Extreme reagent (Roche). […] Quantification of cell lipid contents was achieved either by direct mass measurement (HPTLC) and counting the number of lipid droplets using Image J Lipid Droplet Counter Plug-In, or indirectly by Western blot analysis of cellular content of ADRP. Secretion of apoB and TG-rich lipoprotein was determined by Western blot analysis and metabolic labeling. Mitochondrial β-oxidation was measured using MitoSOX Red (Life Technologies) in situ. Autophagic flux was determined by using Cyto-ID assay (Enzo Life Science) and by monitoring GFP-LC3 clustering in situ. Interaction of Arl8b and subunits of the HOPS complex was determined in situ by the proximity ligation assay (Olink Biosience). Cytoplasmic pH was measured using the cytosolic pHrodo indicator reagent (Invitrogen). […]

[6] = transfection of PD primary neurons

| Molecule | steatosis (CLD accumulation) [1] | glucose uptake [2] | lipid content of lipid-laden cells without addition of EPA ([3]; OA-treatment conditions, transfected cells) | effect on the inhibition of microautolipophagy by Vps41 and GTP-bound Arl8b ([3]; cell culture studies) | effect on EPA-induced lipid degradation (CLD turnover) [3] | axonal swelling and degeneration in PD primary neurons [4, 6] | lysosomal phenotype (ring shape structure) in PD primary neurons [4, 6] | autophagic flux upon EPA treatment in transfected cells [5] | cell survival under OA treatment ([1]; medium with 0.4 mM OA, 2-day incubation) | lysosomal phenotype of normal primary neurons ([4]; transfection of normal primary neurons) |
| --- | --- | --- | --- | --- | --- | --- | --- | --- | --- | --- |
| Arl8b^T34N: putative GDP-bound, dominant negative Arl8b mutant (Thr-to-Asn at 34; SEQ ID NO: 12), expressed from plasmid or adenovirus Adv-MG1023; tagged forms used (protein, GFP/RFP tags in some forms; T34N substitution, GDP-binding, tagged forms used) MLALISRLLDWFRSLFWKEEMELTLVGLQYSGKNTFVNVIASGQFSEDMIPTVGFNMRKVTKGNVTIKIWDIGGQPRFRSMWERYCRGVNAIVYMIDAADREKIEASRNELHNLLDKPQLQGIPVLVLGNKRDLPNALDEKQLIEKMNLSAIQDREICCYSISCKEKDNIDITLQWLIQHSKSRRS | without indication of steatosis | increased rate of glucose uptake | lipid content is lowered | can override the inhibitory effect of Vps41 and a GTP-bound form of Arl8b on microautolipophagy | accelerated | restored axonal swelling and degeneration; also recorded: restore axons | cleared the ring shape structure of lysosomes | does not induce autophagic flux | – | – |
| Arl8b^Q75L: putative GTP-bound, dominant active Arl8b mutant (Gln-to-Leu at 75; SEQ ID NO: 13), expressed from plasmid or adenovirus Adv-MG1022; tagged forms used (protein, GFP/RFP tags in some forms; Q75L substitution, GTP-binding, tagged forms used) MLALISRLLDWFRSLFWKEEMELTLVGLQYSGKTTFVNVIASGQFSEDMIPTVGFNMRKVTKGNVTIKIWDIGGLPRFRSMWERYCRGVNAIVYMIDAADREKIEASRNELHNLLDKPQLQGIPVLVLGNKRDLPNALDEKQLIEKMNLSAIQDREICCYSISCKEKDNIDITLQWLIQHSKSRRS | developed severe steatosis | virtually abolished glucose uptake | – | – | completely blocked | – | – | – | most of the cells died | converts normal neuronal lysosomes to PD primary neuron phenotype |
